Measured values reported in US20060148038A1 (INST NAT L DE LA SANTE ET DE LA RECH MEDICALE, published 2006).

What was measured:
[1] = target: D-Phe-Phe-Arg-CH3Cl; assay: inactivation kinetics: residual amidolytic activity on S2765 after incubation with D-FFR-CK, pseudo-first order, 25° C.
[2] = target: GDX-IFG (zymogen) (UniProt P00742)
[3] = target: GDX-IVG (zymogen) (UniProt P00742)
[4] = target: GDX-SVG (zymogen) (UniProt P00742)
[5] = target: GDX-AVG (zymogen) (UniProt P00742)
[6] = target: FX-recombinant (zymogen) (UniProt P00742)
[7] = target: GDX-SFR (zymogen) (UniProt P00742)
[8] = target: factor Va (KORDIA)
[9] = target: prothrombin (immunopurified)
[10] = target: T1, antithrombin (purified from human plasma) (human, UniProt P01008 33-464); assay: inhibition kinetics, continuous S2765 hydrolysis, second-order (slow tight-binding) conditions, 2 units/ml heparin, 25° C.
T1 construct: mature
Procedure: The kinetics are studied at 25° C., in kinetics buffer containing 1 mg/ml of protease-free bovine albumin and 2 units per ml of heparin; they are followed continuously by virtue of the presence in the reaction medium of 400 μM S2765. The reaction is carried out in a microcuvette in a volume of 600 μl, following the kinetics using a lambda 14 spectrophotometer. The reaction is triggered by adding the minimum amount of activated form of the factor X derivative which is compatible with a reliable signal (1 to 2.5 nM depending on the derivative, such that, in the absence of inhibitor, approximately 10% of the chromogenic substrate is hydrolysed in 60 minutes). For each activated form of factor X derivative, the reaction is carried out in the presence of two concentrations of antithrombin, equal to 2 and 3 times the concentration of the target. By plotting the absorbance at 405 nm as a function of time, a curve is obtained which makes it possible, by non-linear regression using equation 6, to estimate the second-order rate constant for the reaction. The kₒₙ of the antithrombin for the activated form of the factor X derivative is given by equation 5 which takes into consideration the competition introduced by the substrate during the kinetics.

[11] = target: T1, antithrombin (purified from human …); assay: inhibition kinetics, continuous S2765 hydrolysis, pseudo-first order, no heparin, 25° C.
Text: The method by continuous recording of the absorbance at 405 nm under pseudo-first order conditions is used to estimate (in the absence of heparin) the kₒₙ of the antithrombin for the activated form of the factor X derivative lacking Gla domain, and those of the activated forms of the GDX-IVG and GDX-IFG derivatives.

[12] = target: T1, antithrombin (purified from human …); assay: SDS-PAGE of covalent complexes, 1 µM derivative, 2 µM antithrombin, 2 units/ml heparin
Procedure: The incubation is sustained for one hour at 25° C., and the reaction mixture is analysed by polyacrylamide gel electrophoresis (10%, crosslinking 29/1), after denaturation and reduction of the sample. After staining with Coomassie blue, the presence of covalent complexes between the (inactivated) form of the factor X derivative and the antithrombin results in a decrease in the intensity of the band corresponding to antithrombin (60 kDa), a decrease in the intensity of the band corresponding to the activated form of the factor X derivative (31 kDa), and the appearance of a new band of higher molecular weight (approximately 100 kDa) corresponding to the covalent complex.

[13] = target: T1, antithrombin (purified from human …); assay: inhibition kinetics with antithrombin, no heparin
[14] = target: T1, antithrombin (purified from human …); assay: inhibition kinetics, batchwise residual amidolytic activity on S2765, pseudo-first order, 2 units/ml heparin, 25° C.
Procedure: The method by batchwise sampling of aliquots is used to estimate the kₒₙ of the antithrombin for the activated form of the GDX-AVG derivative (in the presence and the absence of heparin).
The reaction is carried out in kinetics buffer containing 1 mg/ml of protease-free bovine albumin (SIGMA, St Quentin-Fallavier, France) and, when appropriate, 2 units per ml of heparin (KORDIA). In a reaction volume of 10 μl, a sufficient amount of the activated form of the GDX-AVG derivative (0.5 μM in the presence of heparin, 1 μM in its absence) is incubated in the presence of a large excess of antithrombin (5 μM in the presence of heparin, 10 μM in its absence), for a varying amount of time at 25° C. The same experiment is repeated twelve times, varying the incubation time from one experiment to another (from 10 seconds for the first to 5 hours for the last, such that the incubation time for a given experiment is equal to double that of the preceding one). At the end of each incubation, 190 μl of S2765 (200 μM in kinetics buffer) are added, and the residual amidolytic activity is measured by recording the variation in the absorbance at 405 nm as a function of time (i.e. the initial rate of hydrolysis of the S2765) using an MR5000 microplate reader. […]

[15] = target: D-Phe-Phe-Arg-CH3Cl; assay: inactivation kinetics with D-FFR-CK, residual amidolytic activity on S2765

T1 sequence (P01008 33-464): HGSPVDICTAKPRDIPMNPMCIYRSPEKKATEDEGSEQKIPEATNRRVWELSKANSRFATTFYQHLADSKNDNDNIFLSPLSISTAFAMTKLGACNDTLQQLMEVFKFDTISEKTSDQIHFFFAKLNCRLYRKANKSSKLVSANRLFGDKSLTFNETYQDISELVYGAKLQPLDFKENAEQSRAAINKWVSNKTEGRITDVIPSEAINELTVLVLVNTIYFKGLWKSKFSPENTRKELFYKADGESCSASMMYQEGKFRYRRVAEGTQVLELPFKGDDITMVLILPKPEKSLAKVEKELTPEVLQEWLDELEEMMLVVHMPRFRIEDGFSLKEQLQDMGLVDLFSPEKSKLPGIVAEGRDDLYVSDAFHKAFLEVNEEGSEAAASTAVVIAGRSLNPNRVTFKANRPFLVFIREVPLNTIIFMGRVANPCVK

Row | kon [1] | kon [10] | kon [11] | Molecule | coefficient of acceleration of pNA release by the thrombin generated by the prothrombinase complex (+factor Va) [8] | coefficient of acceleration of pNA release by the thrombin generated by the activated factor X derivative alone (-factor Va) [9] | also measured
1 | 2300 M⁻¹ s⁻¹ |  |  | activated form of the factor X from plasma (from UniProt P00742 41-179; P00742 235-488) (enzyme) |  |  | 
2 |  |  |  | thrombin |  |  | kcat/Km (M^-1 s^-1) for the activation of the factor X derivative by thrombin [2]: < 1 M⁻¹ s⁻¹; kcat/Km (M^-1 s^-1) for the activation of the factor X derivative by thrombin [3]: < 1 M⁻¹ s⁻¹; kcat/Km (M^-1 s^-1) for the activation of the factor X derivative by thrombin [4]: < 1 M⁻¹ s⁻¹; kcat/Km (M^-1 s^-1) for the activation of the factor X derivative by thrombin [5]: 1 10^2 (±9%); cleavage of the factor X derivative by thrombin [6]: the FX-recombinant is not detectably cleavable by thrombin (ND); kcat/Km (M^-1 s^-1) for the activation of the factor X derivative by thrombin [7]: 4 10^3 (±27%)
3 | 2250 M⁻¹ s⁻¹ | 2e+07 M⁻¹ s⁻¹ | 5800 M⁻¹ s⁻¹ | activated form of the GDX-IVG derivative (enzyme, human, domain: two EGF domains;domain: catalytic domain) light: EDQVDPRLIDGKDGDQCETSPCQNQGKCKDGLGEYTCTCLEGFEGKNCELFTRKLCSLDNGDCDQFCHEEQNSVVCSCARGYTLADNGKACIPTGPYPCGKQTLER heavy: IVGGQECKDGECPWQALLINEENEGFCGGTILSEFYILTAAHCLYQAKRFKVRVGDRNTEQEEGGEAVHEVEVVIKHNRFTKETYDFDIAVLRLKTPITFRMNVAPACLPERDWAESTLMTQKTGIVSGFGRTHEKGRQSTRLKMLEVPYVDRNSCKLSSSFIITQNMFCAGYDTKQEDACQGDSGGPHVTRFKDTYFVTGIVSWGEGCARKGKYGIYTKVTAFLKWIDRSMKTRGLPKAKSHAPEVITSSPLKEQKLISEEDLN | 1.1 10^-4 (±1%) | 2.8 10^-5 (±2%) | fold increase of the rate of activation of the prothrombin on addition of factor Va [8]: the addition of factor Va increases the rate of activation of the prothrombin 50-fold and 10-fold respectively
4 | 2230 M⁻¹ s⁻¹ | 1.3e+07 M⁻¹ s⁻¹ | 12000 M⁻¹ s⁻¹ | activated form of the GD-FX derivative (enzyme, human, domain: two EGF domains;domain: catalytic domain) light: EDQVDPRLIDGKDGDQCETSPCQNQGKCKDGLGEYTCTCLEGFEGKNCELFTRKLCSLDNGDCDQFCHEEQNSVVCSCARGYTLADNGKACIPTGPYPCGKQTLER heavy: IVGGQECKDGECPWQALLINEENEGFCGGTILSEFYILTAAHCLYQAKRFKVRVGDRNTEQEEGGEAVHEVEVVIKHNRFTKETYDFDIAVLRLKTPITFRMNVAPACLPERDWAESTLMTQKTGIVSGFGRTHEKGRQSTRLKMLEVPYVDRNSCKLSSSFIITQNMFCAGYDTKQEDACQGDSGGPHVTRFKDTYFVTGIVSWGEGCARKGKYGIYTKVTAFLKWIDRSMKTRGLPKAKSHAPEVITSSPLKEQKLISEEDLN | 4.2 10^-4 (±2%) | 8.8 10^-6 (±2%) | fold increase of the rate of activation of the prothrombin on addition of factor Va [8]: the addition of factor Va increases the rate of activation of the prothrombin 50-fold and 10-fold respectively
5 |  |  |  | activated form of the GDX-SVG derivative (enzyme, human, domain: two EGF domains;domain: catalytic domain) light: EDQVDPRLIDGKDGDQCETSPCQNQGKCKDGLGEYTCTCLEGFEGKNCELFTRKLCSLDNGDCDQFCHEEQNSVVCSCARGYTLADNGKACIPTGPYPCGKQTLER heavy: SVGGQECKDGECPWQALLINEENEGFCGGTILSEFYILTAAHCLYQAKRFKVRVGDRNTEQEEGGEAVHEVEVVIKHNRFTKETYDFDIAVLRLKTPITFRMNVAPACLPERDWAESTLMTQKTGIVSGFGRTHEKGRQSTRLKMLEVPYVDRNSCKLSSSFIITQNMFCAGYDTKQEDACQGDSGGPHVTRFKDTYFVTGIVSWGEGCARKGKYGIYTKVTAFLKWIDRSMKTRGLPKAKSHAPEVITSSPLKEQKLISEEDLN |  |  | binding result [12]: binds
6 |  |  |  | activated form of the GDX-AVG derivative (enzyme, human, domain: two EGF domains;domain: catalytic domain) light: EDQVDPRLIDGKDGDQCETSPCQNQGKCKDGLGEYTCTCLEGFEGKNCELFTRKLCSLDNGDCDQFCHEEQNSVVCSCARGYTLADNGKACIPTGPYPCGKQTLER heavy: AVGGQECKDGECPWQALLINEENEGFCGGTILSEFYILTAAHCLYQAKRFKVRVGDRNTEQEEGGEAVHEVEVVIKHNRFTKETYDFDIAVLRLKTPITFRMNVAPACLPERDWAESTLMTQKTGIVSGFGRTHEKGRQSTRLKMLEVPYVDRNSCKLSSSFIITQNMFCAGYDTKQEDACQGDSGGPHVTRFKDTYFVTGIVSWGEGCARKGKYGIYTKVTAFLKWIDRSMKTRGLPKAKSHAPEVITSSPLKEQKLISEEDLN | 3.1 10^-5 (±1%) | 9.6 10^-7 (±2%) | rate of activation of the prothrombin with factor Va, against the non-mutated homologue (GDX-IVG) [8]: this is now only 13 times less than that obtained for the activated form of its non-mutated homologue (GDX-IVG); fold decrease of kon against its non-mutated homologue (no heparin) [13]: > 1000 times less; kon [14]: 300 M⁻¹ s⁻¹; fold decrease of kon against the activated form of the factor X from plasma [15]: 1000 times less
7 |  | 760000 M⁻¹ s⁻¹ | 180 M⁻¹ s⁻¹ | activated form of the GDX-IFG derivative (enzyme, human, domain: two EGF domains;domain: catalytic domain; Position 236 counted from the printed Ile235 = P1′) light: EDQVDPRLIDGKDGDQCETSPCQNQGKCKDGLGEYTCTCLEGFEGKNCELFTRKLCSLDNGDCDQFCHEEQNSVVCSCARGYTLADNGKACIPTGPYPCGKQTLER heavy: IFGGQECKDGECPWQALLINEENEGFCGGTILSEFYILTAAHCLYQAKRFKVRVGDRNTEQEEGGEAVHEVEVVIKHNRFTKETYDFDIAVLRLKTPITFRMNVAPACLPERDWAESTLMTQKTGIVSGFGRTHEKGRQSTRLKMLEVPYVDRNSCKLSSSFIITQNMFCAGYDTKQEDACQGDSGGPHVTRFKDTYFVTGIVSWGEGCARKGKYGIYTKVTAFLKWIDRSMKTRGLPKAKSHAPEVITSSPLKEQKLISEEDLN | 4.9 10^-6 (±1%) | 1.0 10^-7 (±2%) | fold decrease of kon against the non-mutated activated forms (no heparin) [13]: 66 times smaller; fold decrease of kon against the activated form of the factor X from plasma [15]: 20 times lower
8 |  |  |  | activated form of the GDX-IFR derivative (enzyme, human, domain: two EGF domains;domain: catalytic domain) light: EDQVDPRLIDGKDGDQCETSPCQNQGKCKDGLGEYTCTCLEGFEGKNCELFTRKLCSLDNGDCDQFCHEEQNSVVCSCARGYTLADNGKACIPTGPYPCGKQTLER heavy: IFRGQECKDGECPWQALLINEENEGFCGGTILSEFYILTAAHCLYQAKRFKVRVGDRNTEQEEGGEAVHEVEVVIKHNRFTKETYDFDIAVLRLKTPITFRMNVAPACLPERDWAESTLMTQKTGIVSGFGRTHEKGRQSTRLKMLEVPYVDRNSCKLSSSFIITQNMFCAGYDTKQEDACQGDSGGPHVTRFKDTYFVTGIVSWGEGCARKGKYGIYTKVTAFLKWIDRSMKTRGLPKAKSHAPEVITSSPLKEQKLISEEDLN | 3.3 10^-6 (±1%) |  | binding result [12]: binds
